Results taken from patent US20100256055A1 (ANGIOCHEM, published 2010).
Square brackets hold non-standard residues; d marks the D form. pGlu = O=C1CC[C@@H](C(=O)O)N1

B1: pGlu-LysNT(8-13) (peptide)
peptide: [pGlu]KRRPYIL-OH
SMILES: CC[C@H](C)[C@H](NC(=O)[C@H](Cc1ccc(O)cc1)NC(=O)[C@@H]1CCCN1C(=O)[C@H](CCCNC(=N)N)NC(=O)[C@H](CCCNC(=N)N)NC(=O)[C@H](CCCCN)NC(=O)[C@@H]1CCC(=O)N1)C(=O)N[C@@H](CC(C)C)C(=O)O
notes: Structure printed only as drawing CHEM-US-00006; The chain is built from the name, and Mw 1056.26 fits pGlu-KRRPYIL; also called pE-Lys-NT(8-13); pGlu-NT(8-13)
B2: Ac-LysNT(8-13) (peptide)
peptide: Ac-KRRPYIL-OH
notes: Structure printed only as drawing CHEM-US-00004; The chain is built from the name, and Mw 987.20 fits Ac-KRRPYIL

Assays:
[1] = target: NT receptor NTSR1 (high affinity NTSR1 receptor) on HT29 cells (human) (UniProt P30989); assay: competition with [3H]-NT on HT29 cells expressing NTSR1
[2] = target: T1, NT receptor NTSR1 (high affinity NTSR1 receptor) on HT29 cells (human, UniProt P30989 1-418); assay: as above
T1 construct: whole, on cells; also called neurotensin receptor type 1; NTR1
T1 sequence (P30989 whole entry): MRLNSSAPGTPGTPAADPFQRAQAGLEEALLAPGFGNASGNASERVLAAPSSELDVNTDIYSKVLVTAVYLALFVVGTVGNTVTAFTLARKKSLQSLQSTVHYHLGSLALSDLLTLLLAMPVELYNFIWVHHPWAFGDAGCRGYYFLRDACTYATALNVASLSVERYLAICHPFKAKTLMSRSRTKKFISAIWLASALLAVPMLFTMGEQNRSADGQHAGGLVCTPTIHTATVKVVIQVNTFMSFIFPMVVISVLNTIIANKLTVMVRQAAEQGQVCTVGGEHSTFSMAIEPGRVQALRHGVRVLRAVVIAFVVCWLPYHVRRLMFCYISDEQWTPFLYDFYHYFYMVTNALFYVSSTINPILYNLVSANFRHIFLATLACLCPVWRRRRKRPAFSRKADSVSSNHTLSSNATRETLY

NT receptor NTSR1 (high affinity NTSR1 receptor) on HT29 cells (human), sequence (P30989 whole entry): as above

Molecule	IC50 [1]	fold weaker binding than native NT [1]	IC50 [2]
Ac-Lys-[D-Tyr^11]NT(8-13) (Ac-KRRPD-YIL-OH) (peptide)	5390 nM	> 1000 fold	–
B1	–	–	1.3 nM
B2	–	–	1 nM
